Measurements published in publication PMC5133369 (Experimental & Molecular Medicine, 2016).
Substitutions are numbered along the chain they refer to.

B1: pCTD-2ndS2 scFv-Fc fusion protein (scFv, V domains shown)
VH: EVQLVESGGGLVQPGGSLRLSCAASGFNIKDTYIHWVRQAPGKGLEWVARIYPTNGYTRYADSVKGRFTISADTSKNTAYLQMNSLRAEDTAVYYCSRDRAQWWEYKNAMDVWGQGTLVTVSS
VL: not shown
B2: pCTD-1stS5 scFv-Fc fusion protein (scFv, V domains shown)
VH: B1 VH with D99G, R100P, A101W, Q102P, W103G, W104S, E105H, Y106H, N108Y
VL: not shown
B3: PanCTD scFv-Fc fusion protein (scFv, V domains shown)
VH: EVQLVESGGGLVQPGGSLRLSCAASGFNIKDTYIHWVRQAPGKGLEWVARIYPTNGYTRYADSVKGRFTISADTSKNTAYLQMNSLRAEDTAVYYCSRYGRRGVFDYWGQGTLVTVSS
VL: not shown
B4: pCTD-S7 scFv-Fc fusion protein (scFv, V domains shown)
VH: EVQLVESGGGLVQPGGSLRLSCAASGFNIKDTYIHWVRQAPGKGLEWVARIYPTNGYTRYADSVKGRFTISADTSKNTAYLQMNSLRAEDTAVYYCSRGISYPWQRGYYYAMDVWGQGTLVTVSS
VL: not shown
B5: pCTD-S7S5 scFv-Fc fusion protein (scFv, V domains shown)
VH: EVQLVESGGGLVQPGGSLRLSCAASGFNIKDTYIHWVRQAPGKGLEWVARIYPTNGYTRYADSVKGRFTISADTSKNTAYLQMNSLRAEDTAVYYCSRDPWSRWAKVFDYWGQGTLVTVSS
VL: not shown
B6: pCTD-1stS2 scFv-Fc fusion protein (scFv, V domains shown)
VH: B5 VH with D99G, P100A, W101F, S102W, R103F, W104S, A105R, K106S, V107H
VL: not shown

The binders below were run against RNA polymerase II (largest subunit, with its C-terminal domain) (Homo sapiens, UniProt P24928) (assay: far-Western, overlay or dot blot).

Binding result, binds:
B1, B2, B3, B4, B5, B6
